Laboratory results taken from US10472652B2, “Chemical engineering processes and apparatus for the synthesis of compounds” (TEEWINOT T[…], priority 2013, dated 2019).

B1: Pme THC(2) #42: cell free supernatant with THCA synthase from a pPink yeast colony transformed with Pme I linearized THCA synthase plasmid (protein, UniProt Q8GTB6 29-545, looked up)
Tetrahydrocannabinolic acid …: NPRENFLKCFSKHIPNNVANPKLVYTQHDQLYMSILNSTIQNLRFISDTTPKPLVIVTPSNNSHIQATILCSKKVGLQIRTRSGGHDAEGMSYISQVPFVVVDLRNMHSIKIDVHSQTAWVEAGATLGEVYYWINEKNENLSFPGGYCPTVGVGGHFSGGGYGALMRNYGLAADNIIDAHLVNVDGKVLDRKSMGEDLFWAIRGGGGENFGIIAAWKIKLVAVPSKSTIFSVKKNMEIHGLVKLFNKWQNIAYKYDKDLVLMTHFITKNITDNHGKNKTTVHGYFSSIFHGGVDSLVDLMNKSFPELGIKKTDCKEFSWIDTTIFYSGVVNFNTANFKKEILLDRSAGKKTAFSIKLDYVKKPIPETAMVKILEKLYEEDVGAGMYVLYPYGGIMEEISESAIPFPHRAGIMYELWYTASWEKQEDNEKHINWVRSVYNFTTPYVSQNPRLAYLNYRDLDLGKTNHASPNNYTQARIWGEKYFGKNFNRLVKVKTKVDPNNFFRNEQSIPPLPPHHH
modifications: yeast culture supernatant
notes: cell free supernatant with THCA synthase from a pPink yeast colony transformed with Pme I linearized THCA synthase plasmid
B2: Pme THC(2) #51: cell free supernatant with THCA synthase from a pPink yeast colony transformed with Pme I linearized THCA synthase plasmid (protein, UniProt Q8GTB6 29-545, looked up)
Tetrahydrocannabinolic acid …: NPRENFLKCFSKHIPNNVANPKLVYTQHDQLYMSILNSTIQNLRFISDTTPKPLVIVTPSNNSHIQATILCSKKVGLQIRTRSGGHDAEGMSYISQVPFVVVDLRNMHSIKIDVHSQTAWVEAGATLGEVYYWINEKNENLSFPGGYCPTVGVGGHFSGGGYGALMRNYGLAADNIIDAHLVNVDGKVLDRKSMGEDLFWAIRGGGGENFGIIAAWKIKLVAVPSKSTIFSVKKNMEIHGLVKLFNKWQNIAYKYDKDLVLMTHFITKNITDNHGKNKTTVHGYFSSIFHGGVDSLVDLMNKSFPELGIKKTDCKEFSWIDTTIFYSGVVNFNTANFKKEILLDRSAGKKTAFSIKLDYVKKPIPETAMVKILEKLYEEDVGAGMYVLYPYGGIMEEISESAIPFPHRAGIMYELWYTASWEKQEDNEKHINWVRSVYNFTTPYVSQNPRLAYLNYRDLDLGKTNHASPNNYTQARIWGEKYFGKNFNRLVKVKTKVDPNNFFRNEQSIPPLPPHHH
modifications: yeast culture supernatant
notes: as for B1
B3: Pme THC(2) #46: cell free supernatant with THCA synthase from a pPink yeast colony transformed with Pme I linearized THCA synthase plasmid (protein, UniProt Q8GTB6 29-545, looked up)
Tetrahydrocannabinolic acid …: NPRENFLKCFSKHIPNNVANPKLVYTQHDQLYMSILNSTIQNLRFISDTTPKPLVIVTPSNNSHIQATILCSKKVGLQIRTRSGGHDAEGMSYISQVPFVVVDLRNMHSIKIDVHSQTAWVEAGATLGEVYYWINEKNENLSFPGGYCPTVGVGGHFSGGGYGALMRNYGLAADNIIDAHLVNVDGKVLDRKSMGEDLFWAIRGGGGENFGIIAAWKIKLVAVPSKSTIFSVKKNMEIHGLVKLFNKWQNIAYKYDKDLVLMTHFITKNITDNHGKNKTTVHGYFSSIFHGGVDSLVDLMNKSFPELGIKKTDCKEFSWIDTTIFYSGVVNFNTANFKKEILLDRSAGKKTAFSIKLDYVKKPIPETAMVKILEKLYEEDVGAGMYVLYPYGGIMEEISESAIPFPHRAGIMYELWYTASWEKQEDNEKHINWVRSVYNFTTPYVSQNPRLAYLNYRDLDLGKTNHASPNNYTQARIWGEKYFGKNFNRLVKVKTKVDPNNFFRNEQSIPPLPPHHH
modifications: yeast culture supernatant
notes: as for B1

target: T1, THCA synthase (Cannabis sativa, UniProt Q8GTB6); assay: catalytic activity of THCA synthase from independent colonies of transformed pPink yeast cells (conversion of CBGA to THCA); type: biochemical; settings: 25 μl cell free supernatant of T3 sample, 100 mM citrate buffer, 10% DMSO, final pH 5.0, 2 hours at 30° C.
T1 construct: His-tag (C); made in house; host or cells: Pichia pastoris (PichiaPink, pPink-HC vector), secreted into the medium; cell-free T3 supernatant used
T1 sequence (Q8GTB6 29-545): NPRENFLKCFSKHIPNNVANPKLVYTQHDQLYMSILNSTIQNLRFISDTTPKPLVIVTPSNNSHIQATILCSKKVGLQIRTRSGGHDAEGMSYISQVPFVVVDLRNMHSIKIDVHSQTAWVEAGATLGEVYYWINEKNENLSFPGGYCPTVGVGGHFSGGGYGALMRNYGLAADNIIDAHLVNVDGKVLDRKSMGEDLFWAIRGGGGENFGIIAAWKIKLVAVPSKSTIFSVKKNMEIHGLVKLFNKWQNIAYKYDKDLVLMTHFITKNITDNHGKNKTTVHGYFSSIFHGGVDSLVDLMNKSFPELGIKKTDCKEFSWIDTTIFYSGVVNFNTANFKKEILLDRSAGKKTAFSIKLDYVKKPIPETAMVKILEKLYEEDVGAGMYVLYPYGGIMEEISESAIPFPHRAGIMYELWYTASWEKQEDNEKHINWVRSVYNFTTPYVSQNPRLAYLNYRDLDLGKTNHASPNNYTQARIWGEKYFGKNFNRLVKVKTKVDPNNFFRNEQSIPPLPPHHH
Procedure: After 24 hours a 100 μL of the cell sample was removed to which was added 100 μL of 40% methanol to induce enzyme production. This methanolic sample was then centrifuged at 12,000 rpm for 5 minutes and the supernatant and pellet were saved as the T1 sample. A second culture sample was obtained after a 48 hour incubation period and treated with methanol as described above. After centrifugation, the supernatant and pellet are saved as the T2 sample. At 72 hours the entire incubation mixture is treated with an appropriate volume of 40% methanol. The supernatant and pellet obtained from methanolic treatment of the culture after a 72 hour incubation period is labeled as T3. The T3 supernatant was spun through an Amicon 30 kD protein filter and analyzed for protein using an SDS-PAGE gel.
The catalytic activity of THCA synthase was measured by incubating 25 μl of the cell free supernatant from a T3 sample with 25 μl of a 1 mg/ml CBGA stock in 200 μl of a 100 mM citrate buffer at pH 4.8 having 10% DMSO for 2 hours at 30° C. The final concentration of CBGA in the reaction mixture was 0.1 mg/ml and the final pH is 5.0. Table 4 illustrates the data related to the catalytic activity of THCA synthase obtained from independent colonies of transformed pPink yeast cells, namely. pPink yeast cells that were transformed using linearized THCA synthase plasmids. Culture samples that converted greater than 20% of the substrate CBGA to product THCA were selected for scale up.

First: B1
Second: B2
The “% Conversion of CBGA to THCA in reaction containing 0.1 mg/ml CBGA.” value of the first is higher: 27.6% for the first, 26.8% for the second.

With B3 the “% Conversion of CBGA to THCA in reaction containing 0.1 mg/ml CBGA.” value was 40.7%.
